Experimental data reported in publication PMC10069166 (Heliyon, 2023).
Where a chain is given by its changes, count along the chain named. Like-named read-outs stand apart in the source and are kept apart here.

B1: 80R_5 antibody (antibody, V domains shown)
VH: EVQLVQSGGGVVQPGKSLRLSCKASGFAFSNYAMHWVRQAPGKGLEWVAVISYDGSYKYYADSVKGRFTISRDNSKNTLYLQMNSLRAEDTAVYYCARDRSYYLDYWGQGTLVTVSS
VL: TTLTQSPATLSLSPGERATLSCKASEDIGTALAWYQQKPGQAPRPLIFDGAILAPGIPDRFSGSGSGTDFTLTISRLEPEDFAVYYCHNVYSWPPTFGQGTKVEVK
B2: 80R_10 antibody (antibody, V domains shown)
VH: B1 VH with K23V, A28D, S30K, N31S, S56R
VL: TTLTQSPATLSLSPGERATLSCHASEDIGTALAWYQQKPGQAPRPLIFYAAQLAPGIPDRFSGSGSGTDFTLTISRLEPEDFAVYYCFQSWTLPLTFGQGTKVEVK
B3: 80R_21 antibody (antibody, V domains shown)
VH: B1 VH with K23V, A28D, N31K, R100N, S101A
VL: B1 VL with A31N, G50A, H88M, N89Q, V90I, S92N, T96S
B4: 80R_6 antibody (antibody, V domains shown)
VH: B1 VH with K23T, A28N, N31E
VL: B2 VL with H23K, T30S, A31N, Y49D, S90I, W91Y, L93W, L95P
B5: 80R antibody (antibody, V domains shown)
VH: B1 VH with K23A, N31S, Y57N
VL: TTLTQSPATLSLSPGERATLSCRASQSVRSNLAWYQQKPGQAPRPLIYDASTRATGIPDRFSGSGSGTDFTLTISRLEPEDFAVYYCQQRSNWPPTFGQGTKVEVK
B6: 80R_22 antibody (antibody, V domains shown)
VH: B1 VH with K23V, A28D, S30K, N31S, R100N, S101A
VL: B2 VL with F88A, S90Y, T92S, L95P
B7: 80R_23 antibody (antibody, V domains shown)
VH: B1 VH with K23V, A28D, S30K, N31S, R100N, S101A
VL: B1 VL with K23H, A31N, I52Q, H88Q, N89Q, V90I, S92N, T96S
B8: 80R_7 antibody (antibody, V domains shown)
VH: B1 VH with K23Q, A28D, S30K, N31S, Y57I, Y59H
VL: B2 VL with H23I, E26Q, Y49D, A50G, Q52I, S66A, F88M, S90T, L95V
B9: 80R_19 antibody (antibody, V domains shown)
VH: B1 VH with K23V, A28D, S30K, N31S, R100N, S101A
VL: B2 VL with A31N, Y49D, F88M, S90I, W91H, T92N, L93W, L95P, T96S
B10: 80R_8 antibody (antibody, V domains shown)
VH: B1 VH with K23V, A28D, S30K, S56K
VL: B1 VL with K23I, E26Q, A31N, S66A, H88Q, N89Q, V90T, S92N
B11: 80R_18 antibody (antibody, V domains shown)
VH: B1 VH with K23V, A28N, N31E, R100N, S101A
VL: B1 VL with K23Q, A31N, G50A, I52Q, D69Q, H88Q, N89Q, V90I, S92N, T96S

Experiments:
Experiment in all cases: BLI
[1] = molecular target: Wuhan S6P SARS-CoV-2 full length spike trimer (SARS-CoV-2, Wuhan, UniProt P0DTC2, stabilised)
[2] = molecular target: Wild-type SARS-CoV-2 full length spike trimer (SARS-CoV-2, wild type (Wuhan-Hu-1), UniProt P0DTC2)
[3] = molecular target: T1, SARS-CoV-2 B.1.617.2 Spike S1+S2 trimer (ECD, His tag) (SARS-CoV-2, Delta (B.1.617.2), L452R | T478K)
[4] = molecular target: SARS-CoV-2 Spike Trimer, His Tag (BA.5/Omicron) (SARS-CoV-2, Omicron BA.5, strain)
[5] = molecular target: T1, SARS-CoV-2 B.1.617.2 Spike S1+S2 trimer …; remark: listed apart in the source

Binder	Kd [2]	other results
B1	0.468 nM	Kd [1]: < 0.001 nM; Kd [3]: 0.443 nM; Kd [4]: 1.12 nM; Kd [5]: 0.441 nM
B2	1.82 nM	
B3	3.1 nM	
B4	4.16 nM	
B5		binding result [2]: no binding
B6	1.39 nM	
B7	0.858 nM	Kd [3]: 0.625 nM
B8	2.85 nM	
B9	0.845 nM	
B10	114 nM	
B11	2.68 nM	
